Test results taken from patent US20230242671A1 (Eli Lilly, published 2023).
Numbering of substitutions follows the chain as printed.

T1: human TIGIT-ECD (human, UniProt Q495A1 22-141)
T1 construct: extracellular domain
T1 sequence (looked up): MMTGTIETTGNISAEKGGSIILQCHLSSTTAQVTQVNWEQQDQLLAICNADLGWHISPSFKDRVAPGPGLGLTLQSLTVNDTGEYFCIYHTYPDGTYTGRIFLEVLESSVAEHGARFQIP

B1: PD-1-TIGIT parental IgG1 heteromab (bispecific antibody)
heavy 1: QVQLVQSGAEVKKPGSSVKVSCKASGGTFSSYAISWVRYAPGQGLEWMGLIIPSFDTAGYAQKFQGRVAITVDESTSTAYMELSSLRSEDTAVYYCARAEHSSTGTFDYWGRGTLVTVSSASTKGPSVFPLAPSSKSTSGGTAALGCLVADYFPEPVTVSWNSGALTSGVHTFPAVLQSSGLYSLASVVTVPSSSLGTQTYICNVNHKPSNTKVDERVEPKSCDKTHTCPPCPAPEAAGGPSVFLFPPKPKDTLMISRTPEVTCVVVDVSHEDPEVKFNWYVDGVEVHNAKTKPREEQYNSTYRVVSVLTVLHQDWLNGKEYKCKVSNKALAAPIEKTISKAKGQPREPQVYTLPPSREEMTDNQVSLTCLVKGFYPSDIAVEWESNGQPENNYKTTPPVLMSDGSFFLASKLTVDKSRWQQGNVFSCSVMHEALHNHYTQKSLSLSPGK
light 1: DIQMTQSPSSVSASVGDRVTITCRASQGISSWLAWYQRKPGDAPKLLISAASSLQSGVPSRFSGSGSGTDFTLTISSLQPEDFATYYCQQANHLPFTFGGGTKVEIKRTVAAPSVFIFPPSDKQLKSGTARVVCLLNNFYPREAKVQWKVDNALQSGNSQESVTEQDSKDSTYSLISTLTLSKADYEKHKVYACEVTHQGLSSPVTKSFNRGEC
heavy 2: EVQLVESGGGLVQPGGSLRLSCAASGFDFSSYGVPWVRKAPGKGLEWVGYIDPIFGPTYYADEVKGRFTISADDSKNSLYLQMNSLKTEDTAVYYCARDYSYGYAYALDIWGQGTLVTVSSASTKGPSVFPLAPSSKSTSGGTAALGCLVKDYFPEPVTVSWNSGALTSGVHTFPAVLQSSGLYSLSSVVTVPSSSLGTQTYICNVNHKPSNTKVDKRVEPKSCDKTHTCPPCPAPEAAGGPSVFLFPPKPKDTLMISRTPEVTCVVVDVSHEDPEVKFNWYVDGVEVHNAKTKPREEQYNSTYRVVSVLTVLHQDWLNGKEYKCKVSNKALAAPIEKTISKAKGQPRRPRVYTLPPSREEMTKNQVSLVCLVKGFYPSDIAVEWESNGQPENNYKTTPPVLDSDGSFFLYSVLTVDKSRWQQGNVFSCSVMHEALHNHYTQKSLSLSPGK
light 2: RIVMTQTPLSLSVTPGQPASISCQASQRISPYLAWYLDKPGQPPQLLISRASKLASGVPDRFSGSGSGTDFTLKISRVEAEDVGVYYCQSYYVHTSSGYAFGGGTKVEIKRTVAAPSVFIFPPSDEQLKSGTASVVCLLNNFYPREAKVQWKVDNALQSGNSQESVTEQDSKDSTYSLSSTLTLSKADYEKHKVYACEVTHQGLSSPVTKSFNRGEC
notes: Unmodified control heteromab; also called PD-1-TIGIT IgG1 heteromab; PD-1-Tigit IgG1 heteromab
B2: PD-1-TIGIT IgG1 heteromab (DK on PD-1 light chain Fab region only) (bispecific antibody)
heavy 1: B1 heavy 1
light 1: B1 light 1 with V110D, E143K
heavy 2: B1 heavy 2
light 2: B1 light 2
notes: also called PD-1-Tigit IgG1 heteromab (with DK LC Fab region on PD-1 arm only)
B3: PD-1-TIGIT IgG1 heteromab (ADK on PD-1 light chain Fab region only) (bispecific antibody)
heavy 1: B1 heavy 1
light 1: B1 light 1 with T109A, V110D, Q199K
heavy 2: B1 heavy 2
light 2: B1 light 2
notes: also called PD-1-Tigit IgG1 heteromab (with ADK LC Fab region on PD-1 arm only)
B4: PD-1-TIGIT IgG1 heteromab (DKK on PD-1 light chain Fab region only) (bispecific antibody)
heavy 1: B1 heavy 1
light 1: B1 light 1 with V110D, E143K, Q199K
heavy 2: B1 heavy 2
light 2: B1 light 2
notes: also called PD-1-Tigit IgG1 heteromab (with DKK LC Fab region on PD-1 arm only)
B5: PD-1-TIGIT IgG1 heteromab (KK on PD-1 light chain Fab region only) (bispecific antibody)
heavy 1: B1 heavy 1
light 1: B1 light 1 with E143K, Q199K
heavy 2: B1 heavy 2
light 2: B1 light 2
notes: also called PD-1-Tigit IgG1 heteromab (with KK LC Fab region on PD-1 arm only)

The binders below were run against T1, human TIGIT-ECD (assay: ELISA, antibody at 1 µg/mL captured by anti-human-Fc, antigen titrated).
Procedure: (§1) Binding affinity of exemplified multispecific binding proteins provided herein is assessed via ELISA. Briefly, 384-well flat bottom Elisa plates are coated with 1 ug/mL anti-human-Fc protein at 20 ul/well and incubated overnight at 4° C. The following day, plates are washed 3× with wash buffer (0.05% PBS-Tween 20) and blocked for 1 hr with blocking buffer (casein, 60 μL/well) at room temperature (RT). Plates are washed 3× with wash buffer, and binding proteins as shown in Table 10 are added at 1 μg/mL in triplicates at 20 uL/well in DPBS (Dulbecco's HyClone). Plates are incubated at RT for 1 hr, washed 3× with wash buffer, and titrated antigens are added at 20 ul/well and incubated for 60 min at RT. Plates are washed 3×, and 20 uL/well NAAP substrate is added and incubated for 20 min. Plates are washed 3×, and PNPP substrate is added at 20 uL/well, and reactions are stopped, and optical density is measured using a colorimetric microplate reader set to 405 nm.

Row | EC50 [nM] | Binder
1 | 0.0681 | B1
2 | 0.0261 | B2
3 | 0.0108 | B3
4 | 0.0454 | B4
5 | 0.0182 | B5

The binders below were run against T2, human PD-1-ECD (human, UniProt Q15116 25-170) in the same assay as above.
T2 construct: extracellular domain
T2 sequence (Q15116 25-170): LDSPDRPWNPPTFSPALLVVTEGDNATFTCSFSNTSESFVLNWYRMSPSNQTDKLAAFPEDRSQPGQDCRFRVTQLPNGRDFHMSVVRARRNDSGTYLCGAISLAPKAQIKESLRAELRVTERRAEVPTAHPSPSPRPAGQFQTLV
Procedure: as §1

Row | EC50 [nM] | Binder
6 | 0.007 | B1
7 | 0.0097 | B2
8 | 0.0303 | B3
9 | 0.0108 | B4
10 | 0.0093 | B5

What follows are binders tested against T3, CaptureSelect Kappa XL ligand (assay: CaptureSelect Kappa XL affinity column after Protein A).
T3 construct: also called Biotin-KappaXL; Kappa XL column
Source text: Multispecific binding proteins of the present disclosure, in clarified medium or recovered from Protein A purification, may be subjected to a second purification step using a CaptureSelect™ Kappa XL (Thermo Fisher Cat. #494321001) pre-packed affinity column. Briefly, multispecific binding proteins of the present disclosure recovered from Protein A purification are subjected to a Kappa XL affinity column which has been equilibrated with a compatible buffer, such as phosphate buffered saline (PBS) at pH 7.4. The column is then washed to remove nonspecific binding components. The bound multispecific binding protein is eluted, for example, by pH gradient (such as 20 mM Tris buffer pH 7.0 to 10 mM sodium citrate buffer pH 3.0). Binding protein fractions are detected, such as by UV absorbance or SDS-PAGE, and then are pooled.
Percent flow through (% F T) and percent elution of exemplified heteromabs of the present disclosure following kappa XL column purification essentially as described herein is assessed. Briefly, various antibody formats (as set forth in Table 3) are subjected to Kappa XL column. Flow through material is considered to comprise of impurities, such as homodimers, or misassembled antibodies, whereas the Kappa XL ligand bound material (elution material) is considered to be the correctly assembled bispecific antibody.

Row | % Elution [%] | % Flow Through (FT) [%] | Binder
11 | 99.6 | 0.44 | B1
12 | 73.5 | 26.6 | B2
13 | 78.2 | 21.8 | B3
14 | 80.7 | 19.3 | B4
15 | 74.8 | 25.2 | B5
